Experimental data taken from the DeepSol protein solubility set.

Assay: soluble on expression in E. coli; label from the status in PepcDB or PDB records

Sequence	soluble on expression in E. coli
MGSDKIHHHHHHMLGMPTVLGVVLRMGRELWWCSLRPVSMLKEYAYCPRVAYYMEVLRPSYRPTEPMNLSREIYSVDHVRGILRSSGFRIVKEEWAVPLRSKRLGLQGVADGVVVEGSLGIIVVEAKLSVRSNRWLHTRGRHVIFQAAAYALALEETRGYSVDYLAIVSLEDSKTYVVKMSPSLRRDVIRLADDMNKTLDDGLEPPPKPGRKCVACRFRRVCQPWVAERGSER	not soluble
MGSDKIHHHHHHMLGRSANGIFWLFRYLERAENSARAIEAGFRLALTRDASDASDEWRSLIVTLGLQNAYEAKYGPGFTGPHVFNFILRDRENPGSVLAMMEMARTNARMVRAGITREVWESVNDGWMKLREALARPVTETRLGDVLDLVRRQSTQVRGAIEGTMLRNEIYNFARLGSFIERADNTARILDVKYYVLLPSVSYVGSSLDNVQWENVLRSLAGERAYRWLNAGRMDPRGIAEFLILDERFPRSLAFCYSKLRSNLASLAREYGGEMHSHEILRDADTQLHTATIEAIFDQGLHEFIGKFIACNTALALQIQRDYRFTE	not soluble
MGSDKIHHHHHHMLIPLYMRYHESLKPDPIIHDASALRLVPQIDYDFSKFDTAIRSSVGSAIRATYLDSLTKAFIQQHQQPIIVMIGCGLDARHERVGDIGKNVPFYELDLPDVIALRKQLMPPAENEILLAASAFDTDWMDELRSTYPQAQFLFVIEGVLMYFNEAQVKKLFEDLAVRFSGGEIAFDIGSTWMSRNSQKHHDVMKHMRAQFDYGCDDDHEMERWADNLHLISAKYMFDFPAWKRIGLLQAAIMWIVPFVRKSYRFLYYRIS	not soluble
MGSDKIHHHHHHMLKKESIHFINKNRSLIVCEDNFVYLLPCIQLRNWISNFTISFPNQTIISDNYTIIPHGSVTLVFFYDATGLHSLLFGPTTKPKTVGNIANRCDVILIIEFQPAGFFPLIGIQQSELIDKVVPFSIINTSLDLEIKKIFNESLSIDKLILKLEELLISNIKIEYSYEFILAIQLIIQNSGNISSQEISKKVFYSSRHLNRLFNQYLGLSMKSFSRLVRINKSIKLLNNNKTSLMSICNELGFYDIPHFIKDFKIVCGITPQKYRANMSDFYSEIAKF	not soluble
MGSDKIHHHHHHMLKLDKIQANKIVEKLMADIPYNINIMDERGKIIASGDSARIGERHRGAERAINERKNIEIYKDTSLEKKGTNEPIILNNHILGVVGISGEPDEVRKFTKLVRSIVLLLTEELNTQQEREKKKKQKNQFIQHLMHVDSSYSEALKLEALELYNLQLDDQNHCVLTKDKRLLSSYYPGHEIFEWENCYLVITSEPPQITKPVTEYLVISSEKATIQQMVQEAQNTYLLLSFLQLEKAKFYQAEDFFIQGIFNFPFHIELDFFETIQTIYDEYYETVIFFANHNLNINETSQVLHIHRNTLNYRLKRIHELTGMDPKVWQDFWKLFYYFAYCFKERFEK	not soluble
MGSDKIHHHHHHMLKQLILENWKSFRYAELPLDPLTVLIGTNASGKSNVVEALEFLQRIARGENVEAALAGDKTLVSIRGGVEWAARKQETGFTLQTLIQGEDETQDYLYTVQIQTIPEVRVIQEQITFENINQDNVVYNKKHLTVKNPIFPTKSGLENLELHVDINDLMQFFPPDQNILLGDKDFLETLNNVLLPFRNKACKFVVASLKNIFILNPIASNMRNYSRLADDLESDASNIAGVLAALPDDLKLEIELTLSTYIKDLPEGDIKKVWAEKVGRFGTDAMLYCQEEWKPGHSTDIDARSMSDGTLRFLAILTALLTRPEGSQIVIEEIDNGLHPSRAKLLVKILREIGSKRNIDILLTTHNPALLDALGPDTVPFVVVAHRDAETGESKLTLLENIDNFSKLFASYSLGEMTTKGAIERSLSHSE	not soluble
MGSDKIHHHHHHMLLEKLNWRYAAKKMDPAKVVSEDKVERIVEAARLAPTSSGLQPFEIIVVTNAEVREKIKAIGWNQSPITDGSHLLVFAAWDNYTAERINHMFDLVNEVRGFRNEGWENYRQMLLSAYPQRDPETNFEHAARQAYIAFGLALAQAAFEGVDATPMEGFDPKALDEILGLRERGLRSVTIAPLGYRQVEGDWLVNLQKVRRPRDQFVTEVK	not soluble
MGSDKIHHHHHHMLLKPDQRLKLDDTDDNLFYAYPRFVTHVDEGFIQQLTDLYRERLQPNTRILDMMSSWVSHLPEEIKFAHVEGHGLNAEELGRNPQLNHYFVQNLNENPGLPLPDQEFDAVLNCVSVQYLQYPEAVFSEIHRILKPGGVAIISFSNRMFYQKAIQAWRDASEPGRLELVKRYFASVPGFSTPEIIARKSTAPNFLQWLGAPGGDPFYAAIAHREGFA	not soluble
MGSDKIHHHHHHMLLREPDPMNVKEKQMQHTDDTRDIAGVQKPEAPSGRRALITGASSGLGIEFAELLAAQKMNLVLAARRKEPMEKLAEDLRRRHGVDILVEPIDLAAPGAAARLKDSLNERAIQIDILVNNAGYGLQGEFLKTPIERTTDMIQLNITALTELSYVFGRDMAARGSGEILLIASLLAFQPVPTYAAYAATKSYVLSFGEALHDELRTQGVVVTSLCPGHTETGFDAAAGAQVSPMLRLLTMKPRPVAEAGLEALAKGKASVIAGFMNKVVAFSTRLTPRSMQRASMRKVMVP	not soluble
MGSDKIHHHHHHMLLSMNRVSNPFRATLGSTPPYLAGRRHEIEDFAEALDDGPGAHERISLITGLRGVGKTVLLNAFEEEARARSWWVISETATAGFTERIIDALFRKASEILHTHRRKLSGITLPSIGGIQFSDILEHQPKITLRSVLTEILSWQEEIDRKLGQDSVGLLITLDELHYHRREEVIDFGATIQHLVREDLNISVAMAGIPQSIKPLLASEEGKNPVTFLRRANRIDLGLIDNNEVRKALAEPVEKVGVTWESDALTDAAEACGGYPFMIQLIGQQCFKRKRSNFITVGSVAEAAVVAKRKLGQLVHEPALADLSEVDRTFLVAMAADDGPSTMSDIAQRLGVNSQYAGNYRRRLIDAEIITSSGYGQVDFELPYMREYLREHAVVDVFKQ	not soluble
MGSDKIHHHHHHMLNKLCMYLERPELYKQSEINFWDDEYISKQLLKAHLDTNFEGASRNFNFIEDSVNWIVTVANPANYPKLLDLGCGPGLYAEKFAQKGYKVTGIDFSKRSINYAQNRNKETNLNINYLFQSYLNMNYNEEFDLATLIYCDYGALSTENRRLLMEKIYDSLKPGGKLILDVFTINKYNNFEEIKYWEINEDGGFWSNEKYMCLQDNCKYNDYNTLEQTLVITEKDENVFYVWNHYFSKESFLLEVENIGFKSVEFFSNVKGEAYSDDSMTMGLVLQK	not soluble
MGSDKIHHHHHHMLQAFATQYIVESLGCETEIIDYTADRFNKHYPLDLGLFRFLIDAYQEKKKKAARTKFNDATFQNNIAKRKTSYVEFIHRRLHNIKEVSGFSNLCKLGSEYDAVLIGSDQKWHPGFSFGVDSSFRFVPKSVRTISYATSLGVSEYPKSYWRTSRKAWSRIDYLSVREKTGADIISKVCDNNIHAEVVVDPTYLISCEDWKKIFPVEKKFEDKYIFCYFLGNDEESKKCARRYANLKGLKLVSVVSNESYSEIDQEYADFLMTGESPDSFVNWIRGAECVFTDSFHGTAFSIMNEKQIYVFYRKNTGVKLQRHSRIDDILSLWEIKYRLITDKHREWDSYQEQPIDYTLVTQKVQSERERSMKFLKAALTF	not soluble
MGSDKIHHHHHHMLQLNSPHVHNLFNTPFSAAIMDDVVIGLEVHVQLNRLRTKLFCSCPLNYHQSPPNTHVCPVCLGMPGAMPVINKEAVKAAVKVAMALNAEIQPFTVFDRKNYFYPDLPKGFQISQYDRPLALGGYVTIELDGQEKRIQLKRVHMEEDPGKLSYKGSITTAKYSLIDYNRSGAPLLEIVTEPVMNSPKEARLFLNKLRMILEYLEVFDGDLEGAMRVDANISIRGSGRVEIKNISSFKGVEKALSYEIMRQKNLLQRGRSVVRETRHFDEARNITVSLRSKEEEQDYRYFPEPDLVPVLTEEIVREVEGTLPEMPEEKRERLKRQYGIGDNFAKVLILDVKMADYFEEVAKLVDPKLAASWIVDVLRGELNYRDWSFAKCWEVFKPEEFAKLLKYFEEDRITEKGVVEVIRTKLDEGGEIDAIIQKKGLFAIPKEEIIKFCKEAIEENPKAVEDYLSGKRQALNFLVGQVMKKTRGRADPADTAKLIEEMLS	not soluble
MGSDKIHHHHHHMLQQRIQSLEEQEHLPSLLSADAQELAHQLQEHQKKIFSPSAQKTMRLFSPAEAAAFIGIGEGYLRQIASEGHGPQPLSNGRRMYAMEDIDRIRRVLDEGSKTGKYIPHRRPGEKLQVVSVMNFKGGSGKTTTSAHLAQYLALRGYRVLAIDLDPQASLSALFGHQPELDVGEGETLYGAIRYEAPRPIAEVVRSTYTANLHLIPGNLELMEFEHETPKAMIAGSTETMFFARIGEVLSEIESFYDIVVIDCPPQLGFLTMSALCAATSVLITVHPQMLDVMSMSQFLSMTSELMAVVENAGGRTSYDWMRYLVTRFEPNDGPQSQMTGFMRAIFGNRMLQNAMVKSTAISDAGVTKQTLYEVERSQFIRGTYDRAMDSLSLVNAEIEEMIRRVWGRK	not soluble
MGSDKIHHHHHHMLSRTASELFWMARYLERAESYARVLDVTWKLSMIPRHSQQSRDLALPLNLSMTHELFQARHARFTMSNLLNFFALDGNNPCSIYSCVEMAWNNAHAVRGSLSAEVWESINATRIELRTLRQQGLGELGSDGFFEWVKERVHLFRGAVIGTLLRNDALSFIGIGTLIERAFATTQLLLIKDQQLTNDPDPVREYYRLDTLLNAVSAREAYNSLYRQPVSRETVMELLILRNDIPRSLRASIADLVGELEKIANDRSYQPLRLAHQLNVDLRFSTRDDLAQADLQTTLNGLLARINALSDSIRQTYLEAL	not soluble
MGSDKIHHHHHHMLSVPPDKSITHRALILSALAETESTLYNLLRCLDTERTHDILEKLGTRFEGDWEKMKVFPKPFAEPIEPLFCGNSGTTTRLMSGVLASYEMFTVLYGDPSLSRRPMRRVIEPLEMMGARFMARQNNYLPMAIKGNHLSGISYKTPVASAQVKSAVLLAGLRASGRTIVIEPAKSRDHTERMLKNLGVPVEVEGTRVVLEPATFRGFTMKVPGDISSAAFFVVLGAIHPNARITVTDVGLNPTRTGLLEVMKLMGANLEWEITEENLEPIGTVRVETSPNLKGVVVPEHLVPLMIDELPLVALLGVFAEGETVVRNAEELRKKESDRIRVLVENFKRLGVEIEEFKDGFKIVGKQSIKGGSVDPEGDHRMAMLFSIAGLVSEEGVDVKDHECVAVSFPNFYELLERVVIS	not soluble
MGSDKIHHHHHHMLTDHRCTKYTDCSSCSFYQRDIFKYRLYPKGYVIPQTRCMQNMVFFLVKGEIWLNSEEHPDTTFRGGQFVLQPIGSKVECKVLDYTECIIYLFERPQNICDNRFNKGISIVENERQQPIVMTMVPPIQLFIEGMKLYLNDDLRCSGLMQAKRSEMVYLLNCYYPIKELAAFYAPIYRYSHSFQYFVMQNYQKAKDVETFAQLGGYSVPTFRRIFKDTFGEPAYQWMLKRKCQDIHNDLIMTELSISEICYKYGFESLSNFSHFCRANFGQSPRSVRSLKDENT	not soluble
MGSDKIHHHHHHMLTGQRRRESRSRQGSGFPTISYPRIRDGANRPRTRMSPLPEAVPFFSQWETPDMTLAVLADGAEVALRRDLLWQGSGAESLDEYAVWAANICGMACLKMILATRGEIVPTIELARRCTRYGGYVVNEGSIKGLIYAPFVSFVQAEFSLEAQVMTNVATSDIPAILRQSRFFIASVSSSIRWPEGEPPSKGGHLVLVTAASDDGFRFHNPSGHTSVTQANAVLAPADFDRFFANRGIAITI	not soluble
